# Source: patent US20260242474A1 (PERSONGEN BIOTHERAPEUTICS SUZHOU, published 2026)
# What was measured:
# [1] = target: T1, PD1-Fc recombinant protein (human, UniProt Q15116 25-167); assay: SPR, PD1-Fc immobilized on CM5 chip, antibody as mobile phase
# T1 construct: range 25-167; also called PD1-Fc antigen; PD1-Fc protein; not shown: human IgG1 Fc tag at the C-terminus
# [2] = target: T1, PD1-Fc recombinant protein; assay: phage ELISA, wells coated with PD1-Fc (Fc and blocked wells as controls)
# T1 sequence (Q15116 25-167 limits assumed): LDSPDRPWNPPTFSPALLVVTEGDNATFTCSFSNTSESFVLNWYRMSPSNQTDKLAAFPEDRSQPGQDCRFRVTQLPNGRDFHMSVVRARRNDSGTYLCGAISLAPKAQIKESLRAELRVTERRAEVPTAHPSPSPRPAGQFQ
Binder,Kd [1],koff [1],kon [1],binding result [2]
"2-C10-(G4S)3-2-B1 bivalent PD1 antibody (with human IgG1 Fc) (Fc fusion, Two VHH joined by (G4S)3, subcloned in tandem with human IgG1 Fc; purified on Protein A; not shown: human IgG1 Fc, in tandem C-terminal (vector pcDNA3.4-hIgG1-Fc2)) QVQLVESGGGLVQPGGSLRLSCAASGFSLDAYTIGWFRQAPGQEREGISCISRSGRITNYARSAKDRFTISRDNAKNTVYLEMKNLRPEDTGAYYCAAVEMDPFLCSGYTQSYDQWGQGTQVTVSSGGGGSGGGGSGGGGSQVQLVESGGGLVQPGGSLTVSCAASGFSLDAYTIGWFRQAPGKEREGIICISRGGRITNYAHSVKDRFTISRDGAKNTVYLHMNSLKPEDTGAYYCAAVQRDPFICSGYTQSYDHWGQGTQVTVSS",0.0211 nM,3.29e-05 s⁻¹,1.56e+06 M⁻¹ s⁻¹,–
"2-C10-(G4S)3-2-F3 bivalent PD1 antibody (with human IgG1 Fc) (Fc fusion, Two VHH joined by (G4S)3, subcloned in tandem with human IgG1 Fc; purified on Protein A; not shown: human IgG1 Fc, in tandem C-terminal (vector pcDNA3.4-hIgG1-Fc2)) QVQLVESGGGLVQPGGSLRLSCAASGFSLDAYTIGWFRQAPGQEREGISCISRSGRITNYARSAKDRFTISRDNAKNTVYLEMKNLRPEDTGAYYCAAVEMDPFLCSGYTQSYDQWGQGTQVTVSSGGGGSGGGGSGGGGSQVKLEESGGGLVQPGGSLTVSCVASGFSLDAYTIGWFRQAPGKEREGIICISRGGRITNYAHSVKDRFTISRDGAKNMVYLHMNSLKPEDTGAYYCAAVQRDPFICSGYTQSYDLWGQGTQVTVSS",0.28 nM,8.92e-05 s⁻¹,318000 M⁻¹ s⁻¹,–
"2-C10 VHH displayed on phage (clone from cross-panning) (VHH, Tested as a phage monoclone (pComF display vector, M13) in phage ELISA; the phage fusion partner is not described) VHH: QVQLVESGGGLVQPGGSLRLSCAASGFSLDAYTIGWFRQAPGQEREGISCISRSGRITNYARSAKDRFTISRDNAKNTVYLEMKNLRPEDTGAYYCAAVEMDPFLCSGYTQSYDQWGQGTQVTVSS",–,–,–,binds
"2-F3-(G4S)3-2-B1 bivalent PD1 antibody (with human IgG1 Fc) (Fc fusion, Two VHH joined by (G4S)3, subcloned in tandem with human IgG1 Fc; purified on Protein A; not shown: human IgG1 Fc, in tandem C-terminal (vector pcDNA3.4-hIgG1-Fc2)) QVKLEESGGGLVQPGGSLTVSCVASGFSLDAYTIGWFRQAPGKEREGIICISRGGRITNYAHSVKDRFTISRDGAKNMVYLHMNSLKPEDTGAYYCAAVQRDPFICSGYTQSYDLWGQGTQVTVSSGGGGSGGGGSGGGGSQVQLVESGGGLVQPGGSLTVSCAASGFSLDAYTIGWFRQAPGKEREGIICISRGGRITNYAHSVKDRFTISRDGAKNTVYLHMNSLKPEDTGAYYCAAVQRDPFICSGYTQSYDHWGQGTQVTVSS",0.282 nM,0.000118 s⁻¹,418000 M⁻¹ s⁻¹,–
